In the assay the target is full-length PbgA protein with a carboxyl-terminal 6XHis tag (S. Typhimurium). In words: SEC-MALS. For orientation: Size exclusion chromatography separates by hydrodynamic size, large species first.

One substance from PMC4978220 can be followed below.

One may read the stoichiometry N as the number of molecules, sites or subunits per partner or assembly.

“full-length PbgA protein with a carboxyl-terminal 6XHis tag (natural protein)” returned a stoichiometry N of 4.
